Experimental data published in US20250152746A1, “BASE EDITING OF ANGPTL3 AND METHODS OF USING SAME FOR TREATMENT OF DISEASE” (Verve Therapeutics, Inc., priority 2020, published 2025).
In the oligonucleotide strings, read from the 5' end, every base follows the letter of its sugar. An asterisk marks phosphorothioate; unmarked linkages are phosphodiester. Other units and linkages are bracketed, terminal groups are in braces. A string of capitals states the bases alone. m = 2'-O-methyl; r = 2'-OH (RNA)

B1: GA181: PCSK9 gRNA; protospacer GGCTTCCTGGTGAAGATGAG (SEQ ID NO: 175) (nucleic acid)
guide: mG*mG*mC*rUrUrCrCrUrGrGrUrGrArArGrArUrGrArGrGrUrUrUrUrArGrArGrCrUrArGrArArArUrArGrCrArArGrUrUrArArArArUrArArGrGrCrUrArGrUrCrCrGrUrUrArUrCrArArCrUrUrGrArArArArArGrUrGrGrCrArCrCrGrArGrUrCrGrGrUrGrCrU*mU*mU*mU
B2: GA083: PCSK9 gRNA for ABE8.8 splice site editing, Human/Cyno (nucleic acid)
guide: UAAGGCCCAAGGGGGCAAGCGTTTTAGAGCTAGAAATAGCAAGTTAAAATAAGGCTAGTCCGTTATCAACTTGAAAAAGTGGCACCGAGTCGGTGCTTTT
modifications: 2'-O-methyl at 1, 2, other sugars and backbone not given here; further chemistry not fully specified
notes: PCSK9 gRNA for ABE8.8 splice site editing, Human/Cyno
B3: GA186: PCSK9 gRNA; protospacer CTCATCTTCACCAGGAAGCC (SEQ ID NO: 180) (nucleic acid)
guide: mC*mU*mC*rArUrCrUrUrCrArCrCrArGrGrArArGrCrCrGrUrUrUrUrArGrArGrCrUrArGrArArArUrArGrCrArArGrUrUrArArArArUrArArGrGrCrUrArGrUrCrCrGrUrUrArUrCrArArCrUrUrGrArArArArArGrUrGrGrCrArCrCrGrArGrUrCrGrGrUrGrCrU*mU*mU*mU
B4: GA076: PCSK9 gRNA for ABE8.8 splice site editing, Human/Cyno (nucleic acid)
guide: GAAAGACGGAGGCAGCCTGGGTTTTAGAGCTAGAAATAGCAAGTTAAAATAAGGCTAGTCCGTTATCAACTTGAAAAAGTGGCACCGAGTCGGTGCTTTT
modifications: 2'-O-methyl at 1, 2, other sugars, backbone and T or U not given here; further chemistry not fully specified
notes: as for B2
B5: GA182: PCSK9 gRNA; protospacer CACCTACGTGGTGGTGCTGA (SEQ ID NO: 176) (nucleic acid)
guide: mC*mA*mC*rCrUrArCrGrUrGrGrUrGrGrUrGrCrUrGrArGrUrUrUrUrArGrArGrCrUrArGrArArArUrArGrCrArArGrUrUrArArArArUrArArGrGrCrUrArGrUrCrCrGrUrUrArUrCrArArCrUrUrGrArArArArArGrUrGrGrCrArCrCrGrArGrUrCrGrGrUrGrCrU*mU*mU*mU
B6: GA183: PCSK9 gRNA; protospacer CTACGTGGTGGTGCTGAAGG (SEQ ID NO: 177) (nucleic acid)
guide: mC*mU*mA*rCrGrUrGrGrUrGrGrUrGrCrUrGrArArGrGrGrUrUrUrUrArGrArGrCrUrArGrArArArUrArGrCrArArGrUrUrArArArArUrArArGrGrCrUrArGrUrCrCrGrUrUrArUrCrArArCrUrUrGrArArArArArGrUrGrGrCrArCrCrGrArGrUrCrGrGrUrGrCrU*mU*mU*mU
B7: GA078: PCSK9 gRNA for ABE8.8 splice site editing, Human/Cyno (nucleic acid)
guide: AGCACCTACCTCGGGAGCTGGTTTTAGAGCTAGAAATAGCAAGTTAAAATAAGGCTAGTCCGTTATCAACTTGAAAAAGTGGCACCGAGTCGGTGCTTTT
modifications: listed as RNA; note = Description of Combined DNA/RNA Molecule: Synthetic oligonucleotide; modified_base 1: mod_base = OTHER; note = 2'-O-Methyl-adenosine phosphorothioate; modified_base
notes: as for B2
B8: GA085: PCSK9 gRNA for ABE8.8 splice site editing, Human/Cyno (nucleic acid)
guide: GCCTCTTCACCTGCTCCTGAGTTTTAGAGCTAGAAATAGCAAGTTAAAATAAGGCTAGTCCGTTATCAACTTGAAAAAGTGGCACCGAGTCGGTGCTTTT
modifications: listed as RNA; modified_base 1: mod_base = OTHER; note = 2'-O-Methyl-guanosine phosphorothioate; modified_base 2: mod_base = OTHER; note = 2'-O-Methyl-cytidine phosphorothioate; modified_b
notes: as for B2
B9: GA084: PCSK9 gRNA for ABE8.8 splice site editing, Human/Cyno (nucleic acid)
guide: CCTCTTCACCTGCTCCTGAGGTTTTAGAGCTAGAAATAGCAAGTTAAAATAAGGCTAGTCCGTTATCAACTTGAAAAAGTGGCACCGAGTCGGTGCTTTT
modifications: 2'-O-methyl at 1, 2, other sugars and backbone not given here; further chemistry not fully specified
notes: as for B2
B10: GA185: PCSK9 gRNA; protospacer AGACATGCAGGATCTTGGTG (SEQ ID NO: 179) (nucleic acid)
guide: mA*mG*mA*rCrArUrGrCrArGrGrArUrCrUrUrGrGrUrGrGrUrUrUrUrArGrArGrCrUrArGrArArArUrArGrCrArArGrUrUrArArArArUrArArGrGrCrUrArGrUrCrCrGrUrUrArUrCrArArCrUrUrGrArArArArArGrUrGrGrCrArCrCrGrArGrUrCrGrGrUrGrCrU*mU*mU*mU
B11: GA075: PCSK9 gRNA for ABE8.8 splice site editing, Human/Cyno (nucleic acid)
guide: TTGGAAAGACGGAGGCAGCCGTTTTAGAGCTAGAAATAGCAAGTTAAAATAAGGCTAGTCCGTTATCAACTTGAAAAAGTGGCACCGAGTCGGTGCTTTT
modifications: listed as RNA; modified_base 1: mod_base = OTHER; note = 2'-O-Methyl-uridine phosphorothioate; modified_base 2: mod_base = OTHER; modified_base
notes: as for B2
B12: GA184: PCSK9 gRNA; protospacer ATGGAAGACATGCAGGATCT (SEQ ID NO: 178) (nucleic acid)
guide: mA*mU*mG*rGrArArGrArCrArUrGrCrArGrGrArUrCrUrGrUrUrUrUrArGrArGrCrUrArGrArArArUrArGrCrArArGrUrUrArArArArUrArArGrGrCrUrArGrUrCrCrGrUrUrArUrCrArArCrUrUrGrArArArArArGrUrGrGrCrArCrCrGrArGrUrCrGrGrUrGrCrU*mU*mU*mU
B13: GA082: PCSK9 gRNA for ABE8.8 splice site editing, Human/Cyno (nucleic acid)
guide: CTTACCTGCCCCATGGGTGCGTTTTAGAGCTAGAAATAGCAAGTTAAAATAAGGCTAGTCCGTTATCAACTTGAAAAAGTGGCACCGAGTCGGTGCTTTT
modifications: listed as RNA; modified_base 1: mod_base = OTHER; note = 2'-O-Methyl-cytidine phosphorothioate; modified_base 2: mod_base = OTHER; note = 2'-O-Methyl-uridine phosphorothioate; modified_bas
notes: as for B2
B14: GA086: PCSK9 gRNA for ABE8.8 splice site editing, Human/Cyno (nucleic acid)
guide: TTCACCTGCTCCTGAGGGGCGTTTTAGAGCTAGAAATAGCAAGTTAAAATAAGGCTAGTCCGTTATCAACTTGAAAAAGTGGCACCGAGTCGGTGCTTTT
modifications: listed as RNA; modified_base 1: mod_base = OTHER; note = 2'-O-Methyl-uridine phosphorothioate; modified_base 2: mod_base = OTHER; modified_base
notes: as for B2

Assays:
[1] = tested on: PCSK9 gene; assay: PCSK9 gRNA/SpCas9 editing in primary human hepatocytes (Tables 2, 4); assay type: cell-based; details: SpCas9 mRNA MS002 1:1 by weight; for Human Primary Hepatocyte Editing % 100: 100 ng/RNA/mL; for Human Primary Hepatocyte Editing % 500: 500 ng/RNA/mL; for Human Primary Hepatocyte Editing % 2500: 2500 ng/RNA/mL
In short: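 Primary human hepatocytes co-transfected with PCSK9 gRNA plus SpCas9 mRNA (1:1 by weight) at 2500, 500 or 100 ng RNA/mL, or 2500–250 ng/mL for tracr-modified guides. Editing at the target site read by amplicon next-generation sequencing of extracted genomic DNA.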

[2] = tested on: PCSK9 gene; assay: PCSK9 gRNA/SpCas9 editing in primary cynomolgus hepatocytes (Tables 2, 22); assay type: cell-based, cynomolgus monkey; details: SpCas9 mRNA MS002 1:1 by weight; for Cyno Primary Hepatocyte Editing % 100: 100 ng/RNA/mL; for Cyno Primary Hepatocyte Editing % 500: 500 ng/RNA/mL; for Cyno Primary Hepatocyte Editing % 2500: 2500 ng/RNA/mL
[3] = tested on: PCSK9 gene splice site; assay type: cell-based, human
Description: PCSK9 gRNAs were co-transfected with an equivalent amount of in vitro transcribed ABE8.8 mRNA MA002 (1:1 ratio by weight) into primary hepatocytes and processed as described in detailed methods. In one set of experiments, extracted genomic DNA was analyzed for base editing of the target splice site with next-generation sequencing of PCR amplicons generated around the target sites. Samples were prepared using the Nextera XT DNA library preparation kit (Illumina) according to the manufacturer's protocol. Briefly, two rounds of PCR were performed first to amplify the region of interest and second to add DNA sequences required for next generation sequencing and sample identification to the initial product. The final amplicon was sequenced on the Illumina MiSeq instrument according to the manufacturer's protocol.
Similarly, three gRNAs (GA098, GA099, GA100) were synthesized matching the 5′-[…]-3′ (SEQ ID NO: 15) (GA091) human protospacer sequence, as well as four gRNAs (GA067/GA101, GA102, GA103, GA347) matching the 5′-[…]-3′ (SEQ ID NO: 14) (GA067) cynomolgus protospacer sequence, but with more extensive chemical modifications of various kinds (Table 1). GA066 and GA095 contain the same chemical composition and modification pattern, as do GA067 and GA101 with one another. […] Each of the gRNAs described in Table 8, with an equivalent amount of in vitro transcribed ABE8.8 mRNA MA002 (1:1 ratio by weight), were co-transfected into primary human hepatocytes and primary cynomolgus hepatocytes via MessengerMax reagent, using various dilutions to assess for editing activity at different concentrations of test article. Three days after transfection, genomic DNA was harvested from the hepatocytes, and then assessed for base editing of the target splice site with next-generation sequencing.
Modifications and/or truncations to either the spacer or tracr portion of the gRNA was assessed by alteration of the GA066 spacer (5′-[…]-3′ (SEQ ID NO: 13)) (Table 12). […] Each of the gRNAs with an equivalent amount of in vitro transcribed ABE8.8 mRNA (1:1 ratio by weight) were co-transfected into primary human hepatocytes and primary cynomolgus hepatocytes and processed as described in detailed methods. […]

Molecule	Human Primary Hepatocyte Editing % 100 [1] [%]	Cyno Primary Hepatocyte Editing % 100 [2] [%]	Cyno Primary Hepatocyte Editing % 500 [2] [%]	Cyno Primary Hepatocyte Editing % 2500 [2] [%]	Human Primary Hepatocytes-splice site editing % 1250 ng/mL [3] [%]	Human Primary Hepatocytes-splice site editing % 2500 ng/mL [3] [%]	Human Primary Hepatocytes-splice site editing % 5000 ng/mL [3] [%]	Human Primary Hepatocyte Editing % 500 [1] [%]	Human Primary Hepatocyte Editing % 2500 [1] [%]
B1	28.87	3.66	15.43	45.12					
B2					0.2	0.2	0.2		
B3	0.79	1.96	7.59	33.48				3.57	12.01
B4					1.6	3.9	4.9		
B5	0.95	1.55	6.14	22.89				4.49	17.44
B6	2.21	2.87	15.99	39.56				9.89	32.35
B7					6.5	10.0	12.6		
B8					1.2	1.8	2.4		
B9					4.9	7.6	8.6		
B10	1.6	1.14	7.75	20.29				10.91	27.98
B11					1.8	3.1	5.5		
B12	2.65	2.90	10.54	31.87				8.29	29.55
B13					5.6	9.6	9.8		
B14					2.9	4.9	5.7		
